Molecular target: CD137 on Jurkat reporter cells (Promega) (UniProt Q07011)
Test: cell-based or functional assay

Chain of CD137 on Jurkat reporter cells (Promega) (Q07011 24-255 limits assumed): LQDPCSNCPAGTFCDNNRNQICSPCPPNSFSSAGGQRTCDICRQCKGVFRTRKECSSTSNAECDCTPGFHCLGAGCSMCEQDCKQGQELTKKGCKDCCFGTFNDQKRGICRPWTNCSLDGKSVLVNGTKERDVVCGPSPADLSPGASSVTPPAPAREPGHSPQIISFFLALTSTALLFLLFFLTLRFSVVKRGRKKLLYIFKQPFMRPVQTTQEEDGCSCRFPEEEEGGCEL

Average EC50: 0.0142 µM
Average fold induction: 4 fold
Substance: CD137 ligand (from UniProt P41273 71-254)
